T1: NCBD2 NCBD (Mus musculus, UniProt P45481)
T1 chain: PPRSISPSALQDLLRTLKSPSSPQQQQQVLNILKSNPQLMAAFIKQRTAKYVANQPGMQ

T2: NCBD1 NCBD (Mus musculus, UniProt P45481)
T2 chain: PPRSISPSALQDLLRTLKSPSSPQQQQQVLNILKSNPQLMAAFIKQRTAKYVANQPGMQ


Legend:
[1] = molecular target: ACTR-Avi (Avi-tagged, biotinylated, Cy3B-labelled ACTR) (human); assay: FRET or BRET
NCBD2 NCBD = molecular target: T1, NCBD2 NCBD
NCBD1 NCBD = molecular target: T2, NCBD1 NCBD

Molecule	kon [1] [M⁻¹ s⁻¹]	Kd (NCBD2 NCBD) [nM]	Kd (NCBD1 NCBD) [nM]
NCBD wt (single-cysteine variant labelled with CF680R) (domain or fragment)	2.9e+08	–	–
ACTR ACTR (protein) GTQNRPLLRNSLDDLVGPPSNLEGQSDERALLDQLHTLLSNTDATGLEEIDRALGIPELVNQGQALEPKQD	–	650	78

From paper PMC6102232 (2018)
